{"source": "the DeepSol protein solubility set"}
{"assay": "soluble on expression in E. coli; label from the status in PepcDB or PDB records"}
{"sequence": "MARRNDHTREELVALTLDRVKQFLDTHSYHELSLRKVATMIGYVPSTLVNVFGNYNLLLLHVVAQTLDELAQEAQQAVKSTTYPKDALYQLAYCYHDFAKRNPYRWQLIFEHNMNGEMLPEWQAQRINNMTSMLEDLLKVIAPLRSEQEVLQASRVLWSGVHGITILSVDDKFFANEPIDGNALINNLLNHYLANW", "soluble on expression in E. coli": "not soluble"}
{"sequence": "MGNASENFDIEDLMSYGDDLINLLNVKNGFDIISQSSEQFKALNFACHEDFNQIQGSIEDCKTKLYACKKKTEEAYSDIAAEDEIERLQKELDEEMEREFKLKDELR", "soluble on expression in E. coli": "soluble"}
{"sequence": "MVVSMRWLLSVFTFLCMKYSEASNPRAIILQNFMDSNKEAVKNLKDDNVLSKALVKTFGLNSSSSSSLSDESSSNLVLMDSTTPCDSGWTKSTVNGMCYKIATADTTWYAAEDWCYSQRYGSHLTSVHSEAEAQWIAATYVSTGWFPYMDNWLGLRRSCDNSTYIWTDGTPVDYLWWQPGYPGSGDPEKSCVTIWVTSLLKLNPGYVQGQFDDIWDCGTNLATPTCRYDPTSTAPHIKYDTSYTCASTTTVSTTSTVTTTKPTTTTTTPTTTTTTPTTTTTESTTTETTSTTTPTTTTTAPTTTTTASTTTFKTTTITTTTQTTTPTTTATTTKPTTTTPTTTRTPVDCSAKCDPFWVSYSDGCYAKIQGTATFETAKLGCQSVGGEMAVITDAAMNEAIRLAFSTNIDSSVSNQAWIGTSSYSNWAPGKPDKAQGVAYSSYCNVIALSVVNKGKDFGFSRGVWTDYPCSLKQEFAICKRI", "soluble on expression in E. coli": "not soluble"}
{"sequence": "MIEAVKPKVLATRLIPNVAPELAGQLGLAQYQRSIGMITCNIDDSTYVALDEATKKADVAVVYAKSFYAGAAHASGPRSGEVIGILAAANPADVRAGIDACIAYLENEAFFYSHDGGKTAWFPHTISSTGSYLSQIAGIPEGEPLAYLIAPPLEAIYGIDAALKAADVAMKVLYGPPTETNFGGALLTGTQSACRAACEDFQRAVIDVAENGMKY", "soluble on expression in E. coli": "not soluble"}
{"sequence": "MLTTLAISNYRTLREIVLPLGRLNVVTGANGSGKSNLYKALRLLAQTAQGGVVNALALEGGLDSCFWAGPENLTKGMLAGDTPIEATVRQAPKRLKLGFAGEDFSYLIELGLPKPDSTTLFGLDPQIKREAIWNGAKYRPASVLVERRGPMVKSRSQDGQGWITLSAHLQSSDSIFTELADPERSPEVLKLRDSIRAWRFYDHFRTDTDAPARRPQLGTATPVLHHDGRDLPSAIQTIFEIGDKSAFDHAVSDAFPGAKVRITPQAGGILQLEFQQQGLLRPLYASELSDGTLRYLLLIAALLTPRPPELMVLNEPETSLHPDLLPALARLIAKASELEHHHHHH", "soluble on expression in E. coli": "not soluble"}
{"sequence": "MSLKITSVRSFLLSYPLPEPVRLPFHGGERTILKRDAMFIRVEADSGLIGYAPGPGSEQAHKAIQQTIAPFLEDRVLADPDALRVLFLQGPGIDAELAKIYCAVEIALYDLVGKARGIPISEMIGGRVRDTIRLYGSAGMYMSPEGYAAEAAAIAALGFRAYKMRPAGGPEQDLETVRQMRKAVGPDFDLMVDAHTWWRMGDSSYPADTVEQLARDMSAYHIAWLEEPLPPDDHAGYLALKQKDLVLLATGEHEPNEDRYLDLILTQAVDYIQMDVCCQGGYALGRRLFAEIARQGLSFAFHSWGTALEVMAAAHLGICWPQMIAEWLEYPCYSSPGRVGMYPFPLAAEILTEPLEIERGDLLVPRAPGLGVAVDESVIERYPWIPGPWSYFRIDSPAENRAVTSDHSVQWDPEAKEGHHHHHH", "soluble on expression in E. coli": "soluble"}
{"sequence": "MILFDYKLLAALAAVVEQGGFERAAQALGLSQSAVSQRIKLLEARVGQPVLVRETPPHPTDLGRRLLNHVQQVRLLEGDLQRWVPNLDEGGAPERLRIALNADSLATWWAAAVGDFCAERRVLLDLVVEDQEVGLKRMRAGEVAGCVCGSARPVAGARSLLLGAMRYRGLASPDFIARHFPRGVEAAALAGVPAIVFGPDDLLQHRFLKDLGVEGGFIHHLCPSSEGFVRLTAGGLGWGLVPERQVQGELARGELVELLPGQVIDVPLYWHYWRNGGELLASLTEHLLARAGDGLVRVSG", "soluble on expression in E. coli": "not soluble"}
{"sequence": "MDLERLAQRLEGLRGYLDIPQKETRLKELERRLEDPSLWNDPEAARKVSQEAARLRRTVDTFRSLESDLQGLLELMEELPAEEREALKPELEEAAKKLDELYHQTLLNFPHAEKNAILTIQPGAGGTEACDWAEMLLRMYTRFAERQGFQVEVVDLTPGPEAGIDYAQILVKGENAYGLLSPEAGVHRLVRPSPFDASGRRHTSFAGVEVIPEVDEEVEVVLKPEELRIDVMRASGPGAQGVNTTDSAVRVVHLPTGITVTCQTTRSQIKNKELALKILKARLYELERKKREEELKALRGEVRPIEWGSQIRSYVLDKNYVKDHRTGLMRHDPENVLDGDLMDLIWAGLEWKAGRRQGTEEVEAE", "soluble on expression in E. coli": "soluble"}
{"sequence": "MAHHHHHHMGTLEAQTQGPGSMKQPTAVIFDWYNTLIDTSINIDRTTFYQVLDQMGYKNIDLDSIPNSTIPKYLITLLGKRWKEATILYENSLEKSQKSDNFMLNDGAIELLDTLKENNITMAIVSNKNGERLRSEIHHKNLTHYFDSIIGSGDTGTIKPSPEPVLAALTNINIEPSKEVFFIGDSISDIQSAIEAGCLPIKYGSTNIIKDILSFKNFYDIRNFICQLINI", "soluble on expression in E. coli": "soluble"}
{"sequence": "MDDSTLTELEAAAFRRLVAHLRERTDVQNIDLMNLAGFCRNCLSNWLKDAADAQGVAMSRDESREAVYGMPYETWKAKYQSTATPDQVEAFKKSHPHSH", "soluble on expression in E. coli": "not soluble"}
{"sequence": "MKAVTYDTDSELAYIYVLPPKKNRNVRTEELRVNDCLLLDISQDGKIAGFECFGEAAHLCAPFAGKSRLYVKDSDGYHFRVCQHASVRSCYTVYRVTFCFSDGDYQEFAGFDLDGTMYHSAFLQRLTEKLEHHHHHH", "soluble on expression in E. coli": "not soluble"}
{"sequence": "MDNKALLTHVDINNVVCAMPLPYTRLYEGLASGLKAQFDGIPFYYAHMRGADIRVECLLNGVYDMAVVSRLAAESYLTQKGLCLALELGPHTYVGEHQLICRKGESANVKRVGLDNRSADQKIMTDVFFGGSDVERVDLSYHESLQRIVKGDVDAVIWNVVAENELTMLGLEATPLTDDPRFLQATEAVVLTRVDDYPMQQLLRAVVDKHALLAHQQRVVSGEQEPSY", "soluble on expression in E. coli": "soluble"}
{"sequence": "MKKLAVLFMCAAMLASCDFKGGSKDLKAENDSLLMELTQRNAELDDMMGTFNEVQEGFRKINAAESRVDLQRGTITENSASAKQQIASDIEFISKQMEENKAQIAKLEAQLKNSKYNSTQMKKAVEALTAELKAKQQRIEELQTELASKNIRIQELDAAVSDLSAAKESLAAENEAKAKTVAEQDKSLNAAWFVFGTKSELKAQKILQSGDVLKSADFNKDYFTQIDIRTTKEIKLYSKRAELLTTHPTGSYELVKDDKGQLTLKITNPAEFWSVSRYLVIQVK", "soluble on expression in E. coli": "not soluble"}
{"sequence": "TIVKSEIIRKLMDAKKFLLDGYIDEGVKIVLEITKSSTKSEYNWFICNLLESIDCRYMFQVLDKIGSYFDLDKCQNLKSVVECGVINNTLNEHVNKALDILVIQGKRDKLEEIGREILKNNEVSASILVAIANALRRVGDERDATTLLIEACKKGEKEACNAVNTLTVRSVM", "soluble on expression in E. coli": "soluble"}
{"sequence": "MSLSVLKICTKDQKGLIYRISDVIFKYHINIVKNDEFVGEGMFFFRALLEGEFDKEAFIGTLEAMLGQEALIELCEKRKKDIVVFATKESHCLGDLLIKHYSNELEANIKAVISNHNSLKDLVEKFEIPYHFISAENLDRKEQENQILKCLEQYKFDYLVLAKYMRILSPDFVRHFEGKIINIHHSFLPAFIGANPYKQAFERGVKIIGATAHFVNNNLDEGPIITQAVSPVNHEFTWQDMQQAGRNIEKDVLSKALDLAFEDRIFIHNNKTIIFEGHHHHHH", "soluble on expression in E. coli": "soluble"}
{"sequence": "MKICLQAGAVKQIENYFSISTDGVEIRIWFLTDSVVRIRAGFDGDFVEESYSLVTTAWEDRMDMFMKHYRKRIQTAEAQLTDGLEKAVIQGKVLRVEVEKNPFRICVYDAENTQIHADIVDLAYMEDSNNRRIHTSEITEDDCFY", "soluble on expression in E. coli": "not soluble"}
{"sequence": "MGSDKIHHHHHHMSDSPLIAFPRGCITGTFIRRVKRFSVEMETAGAGAPERVWIHSNNSGSMLGLLRAGAPVLASPAANPARKLKWTQELAGLDGMWVGVNTQTPNRLLEAAFHAGRLPWAAGYTMFRREARCGASRLDARMDAPQDSGLPPLWVECKNVTMVEDDVAAFPDAATERGQKHLREMMEIVRQGQRAAMFYLVQRADGHCFGPADYVDPVYAGLFYEAAAAGVEMYPHRALVSEHGIDLGPLLPVVPPPGV", "soluble on expression in E. coli": "not soluble"}
